In patent US20040258705A1, “Use of lectins to promote oligomerization of glycoproteins and antigenic molecules” (Antigenics Inc., priority 2003, published 2004):
“Also recorded” adds a separate entry of the source.

How the values were obtained:
gp96 = gp96 (Mus musculus, UniProt P08113); experiment: Analytical SEC of Meth A gp96 with added Con A; assay type: binding, murine
Method: To verify gp96 was oligomerized with Con A, a common homogenate from Meth A-induced murine fibrosarcoma tissue was prepared and processed using a process that included Con A and DEAE column chromatography. The final purified gp96 preparation was divided in two. To one half of the material, exogenous con A was added to a final concentration of 50 ug/mL; buffer alone was added to the other as a control, both samples incubated at 37° C. for 2 hr and then fractionated by SEC (Superdex 200). Individual fractions were analyzed by SDS-PAGE, and by gp96- and con A-specific ELISA. Analytical data for material […] is shown in the left panel; that to which con A was added to the right. In the left panel the peak of gp96 is in fraction 5 and con A levels as detected by specific ELISA are low. In the right panel (con A added) two peaks of gp96 are evident as shown by SDS-PAGE (inset; peak fractions 3 (arrow) and 5) and gp96 ELISA (fractions 3 and 5) as well as a distinct peak of Con A centered on fraction 3.
Con A was added (50 ug/mL final) to an aliquot of this gp96 sample (conc. 500 ug/ml), the sample incubated at RT and hourly samples were taken (T=1 through T=5) and analyzed by SEC. A sample comprising con A alone was also run. […] Each sample was then re-analyzed by SEC. […]

[1] = Sigma lectin list; cited from earlier work
Meth A cells = experiment: In vivo Meth A tumor inhibition (tumor protection / rejection) assay; parameters: species or system BALB/c mice; conditions: for tumor rejection activity, Con A added in process or to final product: in process 30 and 300 μg/ml, following purification 30 μg/ml
Method: (§1) In vivo Meth A growth inhibition assay: BALB/c mice (n=30/group) were immunized on day 0 and day 7 with 10 or 50 μg of gp96 intradermally in the flank. On study day 14, mice were challenged with 1×10^5 Meth A cells intradermally in a total volume of 100 μl. Growing tumors were monitored during the subsequent four weeks. All animals were euthanized on study day 41 after a final tumor measurement. Data was reported as percentage of animals that are tumor-free on study day 41. Control groups included un-immunized (diluent—negative control) and immunized with irradiated Meth A cells (positive control).
as §1, with “(n=10/group)” for “(n=30/group)”, “10” for “10 or 50”, “gl.” for “μl.”
as §1, with “(n=10/group)” for “(n=30/group)”, “10” for “10 or 50”
as §1, with “mice (n=10/group)” for “mice (n=30/group)”, “with 0.3” for “with 10”, “or 3” for “or 50”, “gp96 alone or in combination with Con A” for “gp96”

In the case of `CO[C@H]1O[C@H](CO)[C@@H](O)[C@H](O)[C@@H]1O` [α-MM, Methyl α-D-Mannopyranoside, reference compound], the “effect on high molecular weight gp96-Con A complex in SEC” value (gp96; equal volume of PBS containing 10% α-MM added to 5 hr gp96 + Con A sample) is reported as “dissociated the high molecular weight complex”.

In the case of Concanavalin A [Con A], the “elution position of gp96 in SEC” value (gp96; Con A 50 ug/mL added to Meth A gp96, Superdex 200 or superose 6) is listed as “mediated a shift in the elution position of the gp96 dimer peak” and the “Specificity Sugar” value [1] is listed as “α-man, α-glc”.

For “PHA-E: Phaseolus Vulgaris lectin, Sigma product”, the “Specificity Sugar” value [1] is listed as “oligosaccharide”.

For “PHA-L: Phaseolus Vulgaris lectin, Sigma product”, the “Specificity Sugar” value [1] is listed as “oligosaccharide”.

B1: Pseudomonas aeruginosa (PA-I): lectin, Sigma product (protein, UniProt Q05097 2-122, looked up)
PA-I galactophilic lectin: AWKGEVLANNEAGQVTSIIYNPGDVITIVAAGWASYGPTQKWGPQGDREHPDQGLICHDAFCGALVMKIGNSGTIPVNTGLFRWVAPNNVQGAITLIYNDVPGTYGNNSGSFSVNIGKDQS
For B1, the “Specificity Sugar” value [1] is listed as “gal”.

B2: HSPPC-96 + Con A (in process): Meth A derived gp96 with Con A added during the purification process, before the DEAE column (protein, UniProt P08113 22-802, looked up)
Endoplasmin: DDEVDVDGTVEEDLGKSREGSRTDDEVVQREEEAIQLDGLNASQIRELREKSEKFAFQAEVNRMMKLIINSLYKNKEIFLRELISNASDALDKIRLISLTDENALAGNEELTVKIKCDKEKNLLHVTDTGVGMTREELVKNLGTIAKSGTSEFLNKMTEAQEDGQSTSELIGQFGVGFYSAFLVADKVIVTSKHNNDTQHIWESDSNEFSVIADPRGNTLGRGTTITLVLKEEASDYLELDTIKNLVRKYSQFINFPIYVWSSKTETVEEPLEEDEAAKEEKEESDDEAAVEEEEEEKKPKTKKVEKTVWDWELMNDIKPIWQRPSKEVEEDEYKAFYKSFSKESDDPMAYIHFTAEGEVTFKSILFVPTSAPRGLFDEYGSKKSDYIKLYVRRVFITDDFHDMMPKYLNFVKGVVDSDDLPLNVSRETLQQHKLLKVIRKKLVRKTLDMIKKIADEKYNDTFWKEFGTNIKLGVIEDHSNRTRLAKLLRFQSSHHSTDITSLDQYVERMKEKQDKIYFMAGSSRKEAESSPFVERLLKKGYEVIYLTEPVDEYCIQALPEFDGKRFQNVAKEGVKFDESEKTKESREATEKEFEPLLNWMKDKALKDKIEKAVVSQRLTESPCALVASQYGWSGNMERIMKAQAYQTGKDISTNYYASQKKTFEINPRHPLIRDMLRRIKEDEDDKTVMDLAVVLFETATLRSGYLLPDTKAYGDRIERMLRLSLNIDPEAQVEEEPEEEPEDTSEDAEDSEQDEGEEMDAGTEEEEEETEKESTEKDEL
modifications: tumor-derived; Con A added
notes: Meth A derived gp96 with Con A added during the purification process, before the DEAE column
In the case of B2, the “tumor rejection activity, Con A added in process at graded levels” value (Meth A cells; Con A 3, 10, 30, 100, 300 ug/ml added before DEAE, 10 μg gp96, tumor-free on day 41) is reported as “titratable increase in the tumor rejection activity” and the “tumor rejection activity, Con A added in process or to final product” value (Meth A cells; 10 μg gp96) is reported as “increase in the tumor rejection activity; also recorded: increases the tumor rejection activity”.

B3: HSPPC-96 + Con A (final product): Meth A derived gp96 purified by standard procedure with Con A (30 ug/mL) added following purification (protein, UniProt P08113 22-802, looked up)
Endoplasmin: DDEVDVDGTVEEDLGKSREGSRTDDEVVQREEEAIQLDGLNASQIRELREKSEKFAFQAEVNRMMKLIINSLYKNKEIFLRELISNASDALDKIRLISLTDENALAGNEELTVKIKCDKEKNLLHVTDTGVGMTREELVKNLGTIAKSGTSEFLNKMTEAQEDGQSTSELIGQFGVGFYSAFLVADKVIVTSKHNNDTQHIWESDSNEFSVIADPRGNTLGRGTTITLVLKEEASDYLELDTIKNLVRKYSQFINFPIYVWSSKTETVEEPLEEDEAAKEEKEESDDEAAVEEEEEEKKPKTKKVEKTVWDWELMNDIKPIWQRPSKEVEEDEYKAFYKSFSKESDDPMAYIHFTAEGEVTFKSILFVPTSAPRGLFDEYGSKKSDYIKLYVRRVFITDDFHDMMPKYLNFVKGVVDSDDLPLNVSRETLQQHKLLKVIRKKLVRKTLDMIKKIADEKYNDTFWKEFGTNIKLGVIEDHSNRTRLAKLLRFQSSHHSTDITSLDQYVERMKEKQDKIYFMAGSSRKEAESSPFVERLLKKGYEVIYLTEPVDEYCIQALPEFDGKRFQNVAKEGVKFDESEKTKESREATEKEFEPLLNWMKDKALKDKIEKAVVSQRLTESPCALVASQYGWSGNMERIMKAQAYQTGKDISTNYYASQKKTFEINPRHPLIRDMLRRIKEDEDDKTVMDLAVVLFETATLRSGYLLPDTKAYGDRIERMLRLSLNIDPEAQVEEEPEEEPEDTSEDAEDSEQDEGEEMDAGTEEEEEETEKESTEKDEL
modifications: tumor-derived; Con A added
For B3, the “tumor rejection activity, Con A added in process or to final product” value (Meth A cells; 10 μg gp96) was “increase in the tumor rejection activity; also recorded: increases the tumor rejection activity”.

B4: scFv-purified Meth A gp96 + Con A: Meth A derived gp96 from anti-gp96 scFv immunoaffinity column, Con A added (protein, UniProt P08113 22-802, looked up)
Endoplasmin: DDEVDVDGTVEEDLGKSREGSRTDDEVVQREEEAIQLDGLNASQIRELREKSEKFAFQAEVNRMMKLIINSLYKNKEIFLRELISNASDALDKIRLISLTDENALAGNEELTVKIKCDKEKNLLHVTDTGVGMTREELVKNLGTIAKSGTSEFLNKMTEAQEDGQSTSELIGQFGVGFYSAFLVADKVIVTSKHNNDTQHIWESDSNEFSVIADPRGNTLGRGTTITLVLKEEASDYLELDTIKNLVRKYSQFINFPIYVWSSKTETVEEPLEEDEAAKEEKEESDDEAAVEEEEEEKKPKTKKVEKTVWDWELMNDIKPIWQRPSKEVEEDEYKAFYKSFSKESDDPMAYIHFTAEGEVTFKSILFVPTSAPRGLFDEYGSKKSDYIKLYVRRVFITDDFHDMMPKYLNFVKGVVDSDDLPLNVSRETLQQHKLLKVIRKKLVRKTLDMIKKIADEKYNDTFWKEFGTNIKLGVIEDHSNRTRLAKLLRFQSSHHSTDITSLDQYVERMKEKQDKIYFMAGSSRKEAESSPFVERLLKKGYEVIYLTEPVDEYCIQALPEFDGKRFQNVAKEGVKFDESEKTKESREATEKEFEPLLNWMKDKALKDKIEKAVVSQRLTESPCALVASQYGWSGNMERIMKAQAYQTGKDISTNYYASQKKTFEINPRHPLIRDMLRRIKEDEDDKTVMDLAVVLFETATLRSGYLLPDTKAYGDRIERMLRLSLNIDPEAQVEEEPEEEPEDTSEDAEDSEQDEGEEMDAGTEEEEEETEKESTEKDEL
modifications: tumor-derived; Con A added
In the case of B4, the “tumor rejection activity, immunoaffinity (scFv) purified gp96 with Con A” value (Meth A cells; 0.3 or 3 μg gp96 alone or in combination with Con A) is reported as “increases the tumor rejection activity”.
